Measurements published in the RNAGym collection of RNA variant scans (doi:10.7554/elife.90254).

B1: OR4K15 (parent)
chain: GUUAACGGUCAUAGGCCAUGGAAACUAGGAGCACCAUUUCGCUGCCAGUGAAGAAAUGAACAAAGAAAAUCUGGGCCAGGCAGGCAUCAAAAGAAAUAGUCUUGCGCUCAACCAGAAAGUCUGUAAUCAUUUUAAGGGUA

Variants of: B1
Experiment: self-cleavage, relative activity (ratio to wild type); higher = more cleavage; in vitro, sequencing; the parent is a self-cleaving ribozyme

Variant	self-cleavage
A23G U39A	0.98
A22U U102C	2.02
A22G A91U	1.06
A22G A91G	0.49
A22G A91C	1.93
A24C A94G	1.63
A22G U57A	1.15
A23U A78U	0.2
A22G A69U	1.28
A22G A69G	1.07
A23C A114U	0.01
A22G U130C	0.3
A23G G80A	0.31
A24C A51G	1.23
A23G G41A	1.29
A24C A59G	1.51
A23G A140U	1.15
A23G A140G	1.61
A23G A140C	1.55
A22U G83A	0.93
A22U G74A	0.1
A22U G74U	0.27
A23G C71U	0.31
A23G A69U	1.12

Variant	self-cleavage
A22U A51U	1.14
A22G A114C	0.03
A22G A114G	0.69
A24C A118G	0.96
A23G A110C	0.09
A22G U122C	0.86
A22G U122G	1.67
A24C U49C	1.53
A23C A59U	1.77
A23C A59G	0.63
A23G A63G	1.01
A23G A66U	1.43
A23G A66G	1.02
A22G U70A	1.28
A22G A68C	0.64
A22G A125U	1.32
A23G A62C	0.98
A23U A91G	0.79
A22U A92U	2.17
A22U A92G	1.41
A22U A118U	0.64
A22U A118G	1.13
A23G A47G	0.86
A23G A47U	0.77

Variant	self-cleavage
A22G U132A	1.93
A22G U132C	1.28
A22G C88U	2.1
A23U G79A	0.16
A22G U103C	0.98
A23U A67U	1.91
A23G G75C	0.16
A23U A69G	1.02
A23U A68G	1.45
A22G C46G	1.35
A23G U70A	0.97
A23G U70C	0.64
A23G A95G	1.59
A24G A36G	1.15
A23G A96G	0.92
A23U A56G	1.29
A23G A82C	0.09
A23G A82U	0.2
A23G G84A	1.58
A22U G44A	1.87
A24C A60G	1.17
A23C A95G	1.67
A22G A66G	1.25
A22G A66C	1.49

Variant	self-cleavage
A22G A66U	1.41
A23G A86C	1.06
A22G U133C	0.65
A23G A56G	1.18
A24C A89G	1.68
A22G A90U	2.02
A22G G83U	0.54
A22G G83A	1.27
A22G G75C	0.37
A23U U132C	1.03
A22U A54U	1.56
A22G C77U	1.62
A23U U70C	0.83
A24C G80A	0.19
A22U U103C	1.66
A24C A66G	1.16
A24C A78C	0.36
A24C A78G	0.32
A22U A62G	1.98
A23U A94G	1.18
A23U A94U	0.3
A23G U132C	1.07
A23G U132A	0.86
A23G A92C	1.29

Variant	self-cleavage
A22G A64U	0.62
A22G A64G	1.31
A22G C40U	1.85
A23U A95G	1.75
A24G A67G	1.32
A22G A78G	0.27
A22G A78U	0.32
A22U A125G	0.52
A22G A126C	0.67
A22G U124C	0.38
A22G U124A	1.29
A24G A95U	1.16
A22G G74A	0.24
A22U U49C	0.77
A23G C77U	2.07
A24G A59G	1.23
A24G A59C	0
A24G A78U	0.39
A24G A78G	0.21
A24G A66U	1.11
A24G A66G	0.73
A23G A116U	0.3
A23C A117G	2.19
A24C A92G	1.9

Variant	self-cleavage
A22U A134G	1.35
A22G A89G	0.62
A22G A89U	1.43
A24C U38C	1.26
A23G C121U	2.12
A24C U108A	0.01
A24C U108C	0.01
A24G A82U	0.31
A24C U102C	1.22
A22G A135G	1.54
A22G A135U	1.86
A23G A68G	1.29
A23U A36U	1.53
A22U A30C	0.38
A23G A33U	1.9
A23G A33G	0.84
A23G A33C	1.52
A22G U43C	0.78
A22G U43A	1.31
A24G A91U	1.61
A23G A54U	1.5
A22U A89U	1.91
A23G U122A	1.72
A24G A63G	1.17

Variant	self-cleavage
A23G U37A	1.24
A22U A64G	1.62
A22G U39G	1.41
A22U A94U	1.75
A22U U57G	1.17
A22U U70C	0.9
A23G U72A	0.23
A23G U133C	1.35
A23C U38C	1.73
A23U A66U	1.42
A22G A67G	1.16
A24C A52G	1.55
A24G A52U	0.64
A24G A96U	0.93
A23G A51G	1.33
A22U U122C	1.37
A22U U122A	1.33
A23G A78U	0.36
A23G A78G	0.29
A23U A63G	0.92
A23G A94U	1.54
A24C A47U	0.89
A23G C105G	0.07
A22U A114G	1.09

Variant	self-cleavage
A23U U37C	1.41
A23G U38C	1.38
A22G C42A	0.91
A22G C42U	1.45
A22U U37C	0.85
A24C U26C	1.52
A24C	1.29
A24G	1.09
A22G U120C	0.98
A24G A92U	1.45
A22G A92G	1.08
A22G A92U	1.94
A23G G83A	1.24
A23U A92G	1.46
A23U A51G	1.24
A23U A51U	1.33
A24C A54G	1.21
A22U A140G	1.41
A22U A47G	1.13
A22G G48U	0.9
A23U A117U	0.6
A24C A125G	0.43
A24C A68G	1.52
A22U A59U	1.71

Variant	self-cleavage
A22U A59G	1.48
A23G U108G	0
A23G U108C	0.03
A23G U102A	0.82
A22G C107U	0.06
A22G A95G	1.75
A23G A117U	0.55
A23G A117C	0.36
A23C U43C	1.86
A22U G65U	0.33
A22G U87C	1.28
A22G U87A	1.28
A22U G29A	0.84
A22G C25A	0.35
A22G C25G	1.24
A22U U39A	2.33
A22G G28A	1.28
A22G G28C	1.42
A23U A110U	0.93
A23G A89U	0.72
A23G A89C	1.98
A23G A90U	1.85
A22G A117G	1.68
A22G A117U	0.49

Variant	self-cleavage
A22G G29C	2.4
A23U A86C	0.82
A22U C105U	0.18
A23G U26C	1.42
A23G U26A	1.22
A23U A89G	0.86
A22U A69G	1
A23G A52G	1.13
A23G A52U	1.69
A23G A59U	1
A23U U102C	1.7
A24G A89G	0.78
A24G A89U	1.41
A22G G138U	0.66
A24C U100C	1.84
A22U G99A	1.39
A22U A33G	0.56
A24C A82G	0.62
A22U U132C	1.99
A23G U97G	1.16
A24G A33C	1.62
A24C U131C	1.82
A22U U130C	0.32
A22G U97C	1.52

Variant	self-cleavage
A22G U97A	0.96
A23G C42G	1.11
A23C U70A	1.48
A24C U139C	2.1
A23G C45U	1.23
A23U U38C	0.48
A23U A82G	0.82
A22U A52G	1.63
A24G A54U	1.48
A24G A30C	1.22
A24G A30G	1.01
A23U U122C	1
A24C A126G	0
A22U A110G	0.12
A22G C105U	0.25
A23C A51U	1.46
A23U A24G	1.15
A23U A126G	0.96
A23G G137A	1.04
A24C G104A	0.01
A22U U26C	0.97
A22U A82U	0.32
A22G U72C	0.33
A22G U72A	0.49

Variant	self-cleavage
A24G A60G	0.89
A23U A33G	1.06
A23G A55U	0.86
A23G A55C	1.33
A23G A98G	0.23
A23G U100C	1.72
A23G U100A	0.74
A22G A129C	1.08
A24G A64U	1.51
A22G U37C	1.68
A24C U43C	1.9
A24C U43A	0.67
A23U U43A	1.44
A24G A47U	0.96
A23G U49A	1.12
A23G U49G	1.02
A22G A116G	0.57
A22G C112A	0.05
A23G U57A	0.53
A23G U57C	1.04
A23U G123A	1.5
A22G G106A	0.03
A22U C76A	0.16
A22G A118G	0.99

Variant	self-cleavage
A23G A24U	1.72
A23G A118C	0.5
A23G G28A	0.93
A23G A27G	0.89
A24C A62G	1.2
A24G A86G	1.19
A24C A30G	1.02
A22U A55G	0.73
A23G G53C	1.82
A22G C113U	0.14
A23G A91U	1.57
A23G A36U	1.74
A23G U43A	0.88
A24C U127C	1.03
A22G G137A	1.63
A22G C35A	1.2
A23G U103C	0.77
A22G A82G	0.68
A22G A82C	0.25
A23G G44U	1.21
A24G A51U	1.19
A24G A51G	1.27
A24C U72A	0.28
A23G	0.97

Variant	self-cleavage
A23C	0.9
A23U	1.19
A22U A23U	1.59
A22G U108C	0.03
A22G A134G	1.02
A23G C40U	1.37
A22G U26C	1.02
A22G U26A	0.67
A22G U131C	0.51
A23U C32U	2.28
A24G A68G	1.01
A24G A68C	1.49
A22U C121U	0
A24C U57A	1.21
A22G U49A	0.65
A24G A90G	1.03
A23G U130C	0.57
A22U U127C	1.13
A23C U132C	1.51
A23G G104A	0.03
A23U A59G	2.4
A22U U139A	1.63
